± gives the uncertainty stated by the source.
Assay: protein stability index of a GFP-peptide fusion (yeast GPS) (PSI 1-4); higher = more stable; sorted into four equal gates, so the index is relative within each strain
Method in brief: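 The protein stability index combines read frequencies across sorting gates, each weighted by its gate number and then summed. To obtain those frequencies, a pooled yeast library of GFP fusions to tiled 17-residue yeast protein peptides, on a plasmid also expressing Cherry, was grown to mid-log phase in leucine-free medium. The cells were sorted into four equal gates by GFP/Cherry ratio before plasmid amplification by PCR and Illumina sequencing.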

| Sequence | protein stability index (doa10∆) | protein stability index (pdr5∆) | protein stability index (san1∆) | protein stability index (ubr1∆) |
| --- | --- | --- | --- | --- |
| YNSVAEAKKFEPTYRLV [RPS24A] | 2.87 ± 0.14 | 2.95 ± 0.13 | 2.71 ± 0.18 | 2.74 ± 0.072 |
| MSIGTGSFKVVKGTNIS [RPO31] |  | 2.19 ± 0.15 |  |  |
| ELSIRFPQYKLTTFANQ [ARP7] | 1.69 ± 0.062 | 1.51 ± 0.085 | 1.65 ± 0.12 | 1.59 ± 0.051 |
| SRPGQSGRCDGYILEGE [RPS8A] | 3.38 ± 0.19 | 3.49 ± 0.17 | 3.3 ± 0.17 | 3.38 ± 0.049 |
| CRSCPYEFPIEGIEIYD [RPC11] | 1.73 ± 0.078 | 2.32 ± 0.11 | 1.85 ± 0.11 | 2.08 ± 0.093 |
| TLAERQQLAYDLSISAL [RPN9] | 2.39 ± 0.078 | 2.47 ± 0.13 | 2.77 ± 0.24 | 2.95 ± 0.093 |
| MHKQLAYILAAQKTSFE [RPN1] | 2.37 ± 0.056 | 2.46 ± 0.064 | 2.29 ± 0.067 | 2.43 ± 0.063 |
| TSSNIVLETHESGIKPY [RPT6] | 2.55 ± 0.097 | 2.76 ± 0.061 | 2.68 ± 0.099 | 2.47 ± 0.061 |
| QALRVLRLKPGRKYTTL [RPL16B] | 2.34 ± 0.055 | 1.98 ± 0.051 | 2.37 ± 0.057 | 2.73 ± 0.048 |
| CMEVASAFMKFSKAIEW [BRR2] | 2.12 ± 0.064 | 2.21 ± 0.047 | 2.42 ± 0.068 | 1.98 ± 0.043 |
| LTQEELERIVQIMQNPT [RPS18A] | 2.64 ± 0.099 | 3.08 ± 0.11 | 2.93 ± 0.064 | 2.75 ± 0.12 |
| ERDFYHSLREYINGKAT [RPO31] | 2.58 ± 0.044 | 2.43 ± 0.044 | 2.9 ± 0.037 | 1.75 ± 0.023 |
| SKLSQEFLYPHLNFPNV [SNF12] | 2.88 ± 0.08 | 2.96 ± 0.088 | 2.82 ± 0.069 | 3.02 ± 0.065 |
| EFTLFMDIAERIAVLHQ [YGL172W/NUP49] | 2.77 ± 0.075 | 2.54 ± 0.056 | 2.24 ± 0.068 | 2.9 ± 0.048 |
| GGKAGSAAKASQSRSAK [HTA1] | 3.17 ± 0.072 | 3.14 ± 0.071 | 2.84 ± 0.069 | 3.19 ± 0.048 |
| LPYPTYWSDKKADTDTL [SNF5] | 2.91 ± 0.11 | 2.92 ± 0.11 | 3.1 ± 0.07 | 2.88 ± 0.059 |
| LNNTHVISSGPLAAGNF [RPC53] | 2.74 ± 0.086 | 3 ± 0.1 | 2.69 ± 0.074 | 2.49 ± 0.049 |
| TYVLNTWTNSKIFIKDP [YML103C/NUP188] | 2 ± 0.056 | 2.15 ± 0.046 | 2.3 ± 0.058 | 2.23 ± 0.034 |
| FAVALKNEPDYSKAKYP [CDC53] | 2.88 ± 0.078 | 2.46 ± 0.081 | 2.37 ± 0.098 | 2.34 ± 0.092 |
| TLDYAERHGYIRGIVKQ [RPL2A] | 1.71 ± 0.06 | 1.71 ± 0.083 | 1.71 ± 0.079 | 1.8 ± 0.051 |
| GITYRREDMPFTAEGIV [RPB2] | 2.52 ± 0.096 | 1.86 ± 0.099 | 2.39 ± 0.13 | 2.07 ± 0.12 |
| AMKELAEKKIPLVIRRY [RPO26] | 1.28 ± 0.087 | 1.55 ± 0.092 | 1.7 ± 0.13 | 1.73 ± 0.11 |
| VAGLEDKFRKACSSSGR [SIR3] | 3.16 ± 0.14 | 2.93 ± 0.095 | 2.98 ± 0.18 | 2.9 ± 0.056 |
| HGKRRSQVVETHKVTDI [YMR129W/POM152] | 3.35 ± 0.13 | 3.01 ± 0.13 | 3.18 ± 0.064 | 3.2 ± 0.058 |
| PKWERVFLFDIEKVDRE [RRI2] | 2.4 ± 0.1 | 2.33 ± 0.056 | 2.1 ± 0.1 | 2.57 ± 0.073 |
| FDRLNGNDTISKFYNMK [SSN2] | 3.17 ± 0.1 | 3.06 ± 0.082 | 3.19 ± 0.053 | 3.08 ± 0.059 |

| Sequence | protein stability index (doa10∆) | protein stability index (pdr5∆) | protein stability index (san1∆) | protein stability index (ubr1∆) |
| --- | --- | --- | --- | --- |
| NISISTSELGNDDFSEV [BRR2] | 2.94 ± 0.12 | 3.19 ± 0.096 | 2.46 ± 0.078 | 3.12 ± 0.077 |
| NNAVRFSKQCLISNAIY [ECM29] | 1.7 ± 0.078 | 2.39 ± 0.088 | 1.82 ± 0.11 | 1.08 ± 0.094 |
| MANLSQIYTQRAYMRPL [SCL1] | 1.66 ± 0.06 | 1.46 ± 0.074 | 1.47 ± 0.12 | 1.54 ± 0.043 |
| IHGVLKNVDREVVSEAI [FAS2] | 3.19 ± 0.1 | 3.4 ± 0.3 | 3.3 ± 0.14 |  |
| SVFYTILRDYGPQEAAN [RPO31] | 3.42 ± 0.11 | 3.25 ± 0.094 | 3.27 ± 0.071 | 2.88 ± 0.069 |
| VDSNLPDDEKFTDENTI [RPC40] | 2.35 ± 0.15 | 3.46 ± 0.21 | 2.02 ± 0.19 |  |
| ANVFRLENQKDLVIVDE [MTW1] | 3.49 ± 0.12 | 3.36 ± 0.15 | 3.4 ± 0.091 | 3.43 ± 0.074 |
| WRKSDRELTKNILWRIA [SIR4] | 2.91 ± 0.12 | 1.82 ± 0.088 | 2.09 ± 0.25 | 2.54 ± 0.089 |
| TLHLVLRLRGGIIEPSL [RPL40A] | 2.99 ± 0.056 | 2.81 ± 0.049 | 2.58 ± 0.056 | 2.77 ± 0.044 |
| MGGPKQKGITSYAVSPY [QCR8] | 2.46 ± 0.17 | 2.45 ± 0.2 | 2.25 ± 0.12 | 1.63 ± 0.21 |
| KALPMLEQVEFEKNTIL [MED4] | 3.02 ± 0.07 | 3.04 ± 0.083 | 2.65 ± 0.064 | 3.08 ± 0.083 |
| VEESSEKKQKTESQDVE [DPB4] | 2.8 ± 0.13 | 3.33 ± 0.12 | 3.23 ± 0.13 | 3.03 ± 0.07 |
| EKKILNQFLKIKKKRKE [SMC1] | 2.98 ± 0.12 | 3.06 ± 0.12 | 2.89 ± 0.1 | 3.33 ± 0.15 |
| GYILEGEELAFYLRRLT [RPS8A] | 1.26 ± 0.078 | 1.41 ± 0.07 | 1.24 ± 0.17 | 1.31 ± 0.25 |
| PFNKPNIETGENHNGQS [SWI3] | 3.3 ± 0.14 | 3.16 ± 0.12 | 3.22 ± 0.13 | 2.78 ± 0.13 |
| SPVTGDNSPSEDFMDIP [SNF2] | 3.21 ± 0.12 | 3.25 ± 0.1 | 2.81 ± 0.17 | 3.42 ± 0.058 |
| KKNLGRLTRLWIKNEQE [PRP8] | 1.72 ± 0.063 | 1.89 ± 0.063 | 1.25 ± 0.19 | 2.5 ± 0.25 |
| ASKLAAYNKKSTISARE [HTB1] | 3.22 ± 0.12 |  |  | 3.21 ± 0.11 |
| VNECIAQSHQRFNAKVS [CDC53] | 2.15 ± 0.039 | 2.6 ± 0.043 | 2.64 ± 0.054 | 2.3 ± 0.027 |
| RLIVDPNIADYITAKNN [PRP8] | 2.15 ± 0.076 | 2.22 ± 0.066 | 2.36 ± 0.26 | 2.08 ± 0.052 |
| TQHKVTQYKAGKASLFA [RPL42A] | 3.29 ± 0.076 | 3.04 ± 0.062 | 2.99 ± 0.059 | 2.96 ± 0.068 |
| MNVSTSTFQTRRRRLKK [RPB4] | 3.39 ± 0.2 | 3.43 ± 0.13 |  | 3.38 ± 0.14 |
| DLPISSTDNEAITISNS [SMC1] | 2.8 ± 0.079 | 2.89 ± 0.093 | 2.7 ± 0.054 | 2.91 ± 0.059 |
| SNGEVLEVGKNNFCALY [RPN14] | 2.34 ± 0.07 | 2.05 ± 0.11 | 1.64 ± 0.14 | 2.05 ± 0.036 |
| SRTRAHAQSKREGRHSG [RPL19A] | 2.87 ± 0.076 | 2.85 ± 0.07 | 2.83 ± 0.042 | 2.99 ± 0.037 |

Reference: the supplement of paper PMC9732359
